The DeepSol protein solubility set

assay: soluble on expression in E. coli; label from the status in PepcDB or PDB records

Sequence	soluble on expression in E. coli
MSKRTTPTYPVEVIRSDRRTRTVSARLVGGKILIRIPASMSKKDEKKFVAEMVDKVRTKTQSSAPTDEALLHRAQHLNRTVLENRATIGSIRWVTNQTRRWGSCSQTTNDIRISHRLQGVPDYVLDAVIIHEMVHTFIEGGHSPEFWQWADKAPKAERAKGYLEAWQRMGDVGLEHHHHHH	not soluble
MSLLDFGFDESRIYFTVTDRFFNGDKNNDDPHGNNYDKKNPYTYHGGDLKGLTDKISYLKELGINTIWITPIVENTDFNQMFSQGKTQYSCHGYWAKDFEKLDPHLGTMDDLKTLIDTAHDSGIKIMVDVVLNHAGYGMKNKDNSGANNSPTEEDIAKFKGMFRENPGNDFITQESAGLPDFKTEDPEVREKLIEWQTGWIERSKTEKGNTIDYFRVDTVKHVDNTTWKAFKNKLTEINPSFKTIGEYFGADINNDGGQLQNGQMDALLDFGYKGKARDFVNGNIEGTSAYLDDRASKISNTNLMGQFLSSHDEDGFLKTVGDDLGKQMLAASLQITDKGIPVIYYGEELGMSGWNGFEQGDQNRYDMDFERLNDPKYKKVHDHYEKLLNIRKEYSKIFSKGNRKTIAGNNEEGYSVVLRSYNGKEITPMNLSENNEEKNITNGQNLFVVLNTKNEDKDISFKTNFKEGEKVKDLYSGNEYSIGKDGKVTVKVPSKEGHHHHHH	not soluble
MTRPIGIYEKATPKHFNWLERLQFAKELGFDFVELSIDESDERLARLEWSKEERLELVKAIFETGVRVPTITFSGHRRFPMGSNNPEKEARAMDMMKKCIVFAQDIGIRNIQLAGYDVYYEEKSPETRARFIKNLRQACTWAEEAQVILSIEIMDDPFMNSIEKYLAVEKEIDSPYLFVYPDTGNVSAWHNDLWSEFYNGHRSIAALHIKDTYAVTETSKGQFRDVPFGQGCVDWEEMFAVIKKTNYNGPFLIEMWSENCETVEETRAAIKEAQDFLYPLMEKTGVK	not soluble
MLSTGTKSLDSLLGGGFAPGVLTQVYGPYASGKTTLALQTGLLSGKKVAYVDTEGGFSPERLVQMAETRGLNPEEALSRFILFTPSDFKEQRRVIGSLKKTVDSNFALVVVDSITAHYRAEENRSGLIAELSRQLQVLLWIARKHNIPVIVINQVHFDSRTEMTKPVAEQTLGYRCKDILRLDKLPKPGLRVAVLERHRFRPEGLMAYFRITERGIEDVE	soluble
SLSIKTILIDDEPKAIAILKNKIERLCPDLEIVATIEKPALAFDIINELQPQLVFIDIAMPGMSGFDVLEQFKKPQFEIIFATAFDQYALDAIKQCAIGYLVKPIDNEDLVEAVTNATTNIEQKNALVKNTQLLENINQENFHKKKIVIPSTDGLEFVKVKSITHCEGVDGYTKIHFTNRKPILSSSSIGHFKKLLSHPDFYHVHKSYVTNTNHIIKYLNDGYVTLTGDVTIPVARAKRAEFLEKFRNEG	not soluble
MPRIITRPFLFSPLTLCISAVASAAKTAVKRKKLFTAVLALSWAFSVTAAERIVVAGGSLTELIYAMGAGERVVGVDETTSYPPETAKLPHIGYWKQLSSEGILSLRPDSVITWQDAGPQIVLDQLRAQKVNVVTLPRVPATLQQMYANIRQLAKTLQVPEQGEALVTQISQRLERVQQNVATKKAPVKAMFILSAGGSAPQVAGKGSVADAILSLAGAENVATHQQYKSYSAESLIAANPEVIVVTSQMVDGDINRLRSIAGITHTAAWKNQRIITVDQNLILGMGPRIADVVESLHQQLWPQ	not soluble
SLQTLEKSVIGVRVAVEASPVGASRRAREGWRRPASRHEAGALPLPSEQHITFFKLRPGCLDFLRRVSQTFELYMYTMGTALHAATALRILDPKRRFFGRRVFSRQDAVNGLKAIERIFPHDQKMVLVVDDLECMWRYSPCCIKVQGYHYFADVSAADARRISPHSYTQWLSMARPFCNFLPSERIKLCRHVRRCLPSKDA	not soluble
CIGLVNPKTPENVGSVMRAAGCYGVNSVFYTGKRYDIAKQFCTDTKSQHLNLPLIGVEDLRDIVPLDCVPVAVDLIEGAKPLPDYKHPPRAFYIFGPEDGTLKKEITDFCRETIYVPTNGCMNLAAAVNVIMYDRMAK	not soluble
MNRLVILARVSTSKQDTERQLSDLNEVCTRNQYDLVNTFTETVSGKYGITERTTLQAIIKMAELKQFDKLLVSEVSRIGRKTSEVLKFIEILTERKISIYIHNYGLETLDRNLNQNPLIGMMINFLSSFSDMERTLTISRVKSGLEEARRRNVILGRPKNSTKDIDIFIDENKRLFELIKKQLTIREIARLTYKSTTTVVKAIKLYKLHPEKFLSAT	not soluble
MHHHHHHSSGRENLYFQGTYNISVVGLSGTEKEKGQCGIGKSCLCNRFVRPSADEFHLDHTSVLSTSDFGGRVVNNDHFLYWGEVSRSLEDCVECKMHIVEQTEFIDDQTFQPHRSTALQPYIKRAAATKLASAEKLMYFCTDQLGLEQDFEQKQMPDGKLLVDGFLLGIDVSRGMNRNFDDQLKFVSNLYNQLAKTKKPIVVVLTKCDEGVERYIRDAHTFALSKKNLQVVETSARSNVNVDLAFSTLVQLIDK	soluble
MSLKRLACYIRVSSNKDDQQSSLIQQETLLREKFKQEDLIIYSDTGTGVSFNREGFKRLMYDAGLNICKLNDGRITFEADNIRKPIFDEIVVINTSRFSRNIAIIDILRVLWDYKKINVHFLDNCKNSNNPNDMTVLKMFFSMAENESMETSNRTKRGNEISILDNTIRNNSIFGWDFDREKNYLKINKKEAEIVRFIFKTALTNGLKMTAKIVNEKGYRTKKNRLWSSSTIKTLIVNPKYKGYNVRNKYSNENMFTGVKSKYVKKENWIIQKNNRIEPIVSEELWEEVQRALESRCLHGNREGHHHHHH	soluble
SMGTKLKKSNNDITIFSENEYNEIVEMLRDYSNGDNLEFEVSFKNINYPNFMRITEHYINITPENKIESNNYLDISLIFPDKNVYRVSLFNQEQIGEFITKFSKASSNDISRYIVSLDPSDDIEIVYKNRGSGKLIGIDNWAITIKSTEEIPLVAGKSKISKPKITGSERIMYRYKTRYSFTINKNSRIDITDVKSSPIIWKLMTVPSNYELELELINKIDINTLESELLNVFMIIQD	soluble
MLPLPTWTLSDVDAILVLSFGGPEGQQDVIPFLENVTRGRGIPRERLEEVAVHYRHFGGISPLNALNREIIGNIIEVLSSRGLEIPVYFGNRNWHPFVNDTAEKMVRDGVRNVAVFATSAWGGYSGCRQYDEDIVRMNHHLEEKELPTLNCLKLRQFFDHPLFIEEMSSVVFQAARELGISALDELQLHQKVVFTAHSIPEVANENSGRKEDGPLYSRQVYEAASLVAKHLGISQERYDVVWQSASGNGQIPWLEPDILDYAKCQHDEGVSELVVAPIGFISDHMEVVWDLDHELQDLASDLGMSISRAATVGHTDSFATMIVELVEESLGVKPHQNLGTVPSKGCSFNGEPCEVNCCKPVQRPHSAKA	not soluble
MDELLKAIKTKIAEMKKIELTGFTNTETATAYFQEKEAILEGIVKTLETITVQETSEVEALKSTVKSLREEIKGQAKSPRELSRRELLYNLGKGIAAAWSGNHKVLADLAFSPNLKSDNWTNPKDVSWGERGWTVSKAALGEPMGNMSPNNEQFLINPIYETEIMSDVAKKSVMMSLVRHRPMLGPSIFLPTRDRGGVQLNWLTAYGQKIEGSKPKGAERVELKAYTLAGFIPWFDEFEEDVFVDLGAMFIDEFIETYGQEFDRQCLLADDDPFTGAMACADVTEVTIKGDTIDDLTWKDFRDAVYKVPAEERKDCSWFLNETVLNHIANIEDTTGRPIWRRPTEAMPGRLDLYPYHEVSILPQIADIGENQAFAVFMNPKRIQHGNRRGIELKKFDGTTESLEYGELFLRFRKRDGFLVPDRKTTWSSLGHN	not soluble
MDDSTLTELEAAAFRRLVAHLRERTDVQNIDLMNLAGFCRNCLSNWLKDAADAQGVAMSRDESREAVYGMPYETWKAKYQSTATPDQVEAFKKSHPHSH	not soluble
MSLYKDDSLTLHTDLYQINMMQVYFNQGIHNKRAVFEVFFRKEPFANGYAVFAGLERMIAYLQGLSFSETDIAYLEELGYPADFVAYLKEFKLELSVKSAKEGDLVFANEPIVQIEGPLAQCQLVETAILNIVNFQTLIATKAARIRSVIEDEPLLEFGTRRAQEMDAAIWGTRAAVIGGANATSNVRAGKLFGIPVSGTHAHALVQAYGNDYDAFMAYAGTHKDCVFLVDTYDTLRLGVPAAIRVASELGDKINFLGVRIDSGDMAYLSKKVRKLLDEAGYPHAKIYASNDLDENTILNLKMQKAKIDIWGVGTKLITAYDQPALGAVYKIVSIEDDNGVMQDTIKLSNNAEKVSTPGKKQVWRITSRAKGKSEGDYITFTDTDVNSLDEIDMFHPTYTYINKKVRDFDAVPLLVDIFDQGKLVYTQPSLSDIQDYARREFDKLWDEYKRVLNPQDYPVDLACDVWQNKVNLIDRIRKEAYEKGDVKEGHHHHHH	soluble
GVALGATRVIYPEGQKQVQLAVTNNDDKSSYLIQSWIENAEGKKDARFVITPPLFSMQGKKENTLRIIDATNGQMPEDRESLFWVNVKAIPAMDKAKTGENYLQFAIVSRIKLLYRPQGLVIPPEQAPGKLEFTRENGGLTLFNPTPYYLTVTDLKAGNKSLENTMVPPQGKVTVNIPGGYTGGDITYKTINDYGALTEQVRGVVK	soluble
MAHHHHHHMSLSIHTNYGDIKIELFCYEVPKTCKNFLALCASGYYDNTKFHKNIKGFAIQGGDPTNTGKGGQSIYGKYFEDEFDSTLKHDKRGIVSMANKGKPNTNGSQFFITYSRQPHLNGIYPVFGKVIDGMDVLSVLENEPVGEKSRPIKDIIIETITIHANPIAEEESVDN	not soluble
MIQITVVQIDNYGPWTVTPNPRRESDLQALQSRLYCDMNLQFGAHKGLAFYTRFDNIIAITNGIDLETHKRIQNSVKNRYPFTVSMAVASAETAYEAQKLATKTIQEYGSAQDDVRKEVLDVANEFVSNGYVQLAHVDINDITGKLTDLETAYDTYLSVQKTKLKLMEELKKYDSLGFFIGGDNFMCPCNGMNEKDFLCMFEDIKDSCGIELKAGIGIGKTAEDASNLADIGLEVIREGKTDSQVYTLKQ	not soluble
MGSDKIHHHHHHFVSIELKDRSLVNNQYKGKIKSANLSVDYEINQVMKDIDKLGLNTVNVPIIINVESINSDIMSIDNNSKEKAIKLIKKLNKKGISTILEAYPWIENGKLYETDWNPINKKRFFYTWQNAILNELIIDVANPLDVNVLNIGSNFVHLEEYQQNWGEIIDFVQSKFDGLVTYRTNWWYTKKDDLSSKLFYEQKLNNNFFDKLDFISIAAYFELSNKPVNTVDELISALHSSTVNNRGQNIKQEIYNLYKAHRKPIFFGELGFSNRESASSQPWNHTPSKAVNGEEQARCFEAYKKVFENEDWINGFSVFCVGKIDDEKNFYPSKESIKVIKSWYE	not soluble
MALKKAMLLIKNGKILTMTGVNYDSGSVLIDNGKIIKVGENIDVDESCEIIDADGFWVMPGIIEAHCHVGIQEEKRGFEGNDCNEMTNPVTPYLRALDGINPMDSAFYTALTAGITGIMVGPGSANVVGGQWMFLKTYGRAIDKMVVLQPSAMKIAFGENPKANYDKKNMMPSTRIAIAAMLREELFEAQQYYEKRKNAEKSGDSFNKEFRKECWVPVFDKKIPLKAHVHRADDILTAIRIAKEFNLNLTLDHCTEGHLVAKEIKESGFPAIVGPTLTSRNKIETQYADFKTAGILHNEGVKVAITTNHPVTRIQDLLICAGLAAKEGLGIEEGLKAITINPAEICNVANRVGSIEVNKDADIAIFDGNPMETFTKTMYTIINGEIVYSLKDKNYEGHHHHHH	soluble
